“Also recorded” adds a separate entry of the source. Some results are limits rather than exact numbers.

The results in this text go back to patent US8470574B2, “L-succinylaminoacylase and process for producing L-amino acid using it” (Toyo Boseki Kabushiki Kaisha, priority 2008, dated 2013).

Series [1] is described as follows: Effect of metal ion on N-succinylamino acid racemase activity. Format: biochemical. The following applies: final concentration of 0.1 mM to 1 M.
A short description of series [2]: Ability of commercially available L-aminoacylase to synthesize L-tert-leucine, TLC (Comparative Example). It is filed as biochemical. The settings on record: 2,600 U/mL enzyme solution, 25° C., 12 hours; TLC ninhydrin. The method, then: Acylase AMANO (Sigma, code No. 01818-5G) and porcine kidney Acylase I (Sigma, code No. A3010-100MG) were dissolved in 50 mM K-phosphate buffer (pH 7.5) so as to make each of them 2,600 U/mL to give an L-aminoacylase solution.
The above-mentioned 1 M HEPES (2.0 mL), 10 mM CoCl2 solution (0.1 mL) and 150 mM N-acetyl-L-tert-leucine (1.0 mL) were mixed with water (6.4 mL) to give a reaction reagent.
The above commercially available L-aminoacylase (Comparative Example 2) (0.5 mL) was added to the reaction reagent (9.5 mL) containing the above N-acetyl-L-tert-leucine and, after the above was gently stirred, the reaction was conducted at 25° C. for 12 hours. As a control test, the same reaction was conducted by adding 50 mM K-phosphate buffer (pH 7.5) to the reagent mixture in place of the L-aminoacylase solution. After the enzymatic reaction, the L-amino acid was directly detected by TLC and ninhydrin reaction by the same manner as in Example 2.

Series [3] is described as follows: Synthesis of L-aspartic acid from N-succinyl-L-aspartic acid, TLC detection (Example 3). Format: biochemical. The following applies: TLC ninhydrin, as Example 2. The method, then: (§1) The reaction reagent containing the N-succinyl-L-amino acid as such was prepared by the same method as in the preparation of a reaction reagent containing N-succinyl-L-tert-leucine mentioned in (1).
(§2) The L-succinylaminoacylase (2.3 mg/mL, 0.5 mL) prepared in Example 1 was added to the reaction reagent (9.5 mL) containing the above N-succinyl-L-tert-leucine and, after the above was gently stirred, the reaction was conducted at 57° C. for 6 hours. As a control test, the same reaction was conducted by adding 50 mM K-phosphate buffer (pH 7.5) to the reagent mixture in place of the L-succinylaminoacylase solution. […]
(§3) N-Succinyl-L-valine, N-succinyl-L-phenylalanine, N-succinyl-L-tryptophan, N-succinyl-L-asparagine, N-succinyl-L-aspartic acid, N-succinyl-L-serine, N-succinyl-L-glutamic acid, N-succinyl-L-tert-leucine, N-succinyl-L-cyclohexylglycine or N-succinyl-L-4-bromophenylalanine is used as an N-succinyl-L-amino acid and a reaction reagent was prepared according to the method for the case of N-succinyl-L-tert-leucine. L-succinylaminoacylase of Example 1 was made to react using the resulting reaction reagent to synthesize an L-amino acid and the L-amino acid was directly detected by the same manner as in Example 2.

The nature of series [4]: Conversion of N-succinyl-L-tert-leucine to L-tert-leucine, HPLC (Example 4). The following applies: 1 wt % N-succinyl-L-tert-leucine, pH 7 to 8, 1 mM CoCl2, 57° C., up to 90 hours. Format: biochemical. The procedure:
(§4) An L-succinylaminoacylase solution (1 mL; 2.3 mg/mL) was added to a 1 wt % solution of N-succinyl-L-tert-leucine (pH 7 to 8; 10 mL; containing 1 mM of CoCl2) and made to react at 57° C. for 90 hours with stirring to give L-tert-leucine. The sample was collected after 16 hours, 42 hours, 65 hours and 90 hours from the start of the reaction and subjected to an HPLC measurement under the following condition to confirm the peaks of succinyl-form compound and free-form compound whereby the synthesis of L-tert-leucine from N-succinyl-L-tert-leucine was confirmed.
Column: Inertsil ODS-2 (particle size: 5 μm; 4.6 mm inner diameter×250 mm length) manufactured by GL Science
Eluant: aqueous solution of phosphate (pH 2.3)/acetonitrile for HPLC=80:20
Column temperature: 40° C.

Series [5] in a line: Synthesis of L-cyclohexylglycine from N-succinyl-L-cyclohexylglycine, TLC detection (Example 3). It is filed as biochemical. The settings on record: TLC ninhydrin, as Example 2. The method, then: as §1, §2, §3
The nature of series [6]: Synthesis of L-glutamic acid from N-succinyl-L-glutamic acid, TLC detection (Example 3). It is filed as biochemical. The following applies: TLC ninhydrin, as Example 2. The procedure:
as §1, §2, §3

The nature of series [7]: Conversion of N-succinyl-DL-tert-leucine to L-tert-leucine, HPLC (Example 5). Format: biochemical. The settings on record: 1 wt % N-succinyl-DL-tert-leucine, pH 7 to 8, 1 mM CoCl2, 57° C., 90 hours, theoretically highest yield 50%. The method, then: as §4, with “N-succinyl-DL-tert-leucine” for “N-succinyl-L-tert-leucine”, “finishing” for “16 hours, 42 hours, 65 hours and 90 hours from the start of”, “the” for “the following”, “condition same as the Example 4” for “condition”, “confirmed. As a result, the yield was 45% or more and the value near 50% which is the theoretically highest yield was achieved.” for “confirmed.”

Series [8] is described as follows: Synthesis of L-asparagine from N-succinyl-L-asparagine, TLC detection (Example 3). The settings on record: TLC ninhydrin, as Example 2. Format: biochemical. The procedure: as §1, §2, §3
Series [9] can be described thus: Temperature stability of the enzyme. Format: physicochemical. The following applies: heating treatment for 30 minutes.
A short description of series [10]: Conversion of N-succinyl-DL-tert-leucine to L-tert-leucine with N-succinylamino acid racemase, HPLC (Example 6). Format: biochemical. The settings on record: used together with N-succinylamino acid racemase, 1 wt % N-succinyl-DL-tert-leucine, 1 mM CoCl2, 57° C., up to 90 hours. The method, then:
An L-succinylaminoacylase solution (1 mL; 2.3 mg/mL) prepared in Example 1 and the above N-succinylamino acid racemase (0.1 mL; 10.5 mg/mL) were added to a 1 wt % solution of N-succinyl-DL-tert-leucine (pH 7 to 8; 10 mL; containing 1 mM of CoCl2) and made to react at 57° C. for 90 hours with stirring to synthesize L-tert-leucine. The sample was collected after 24 hours and 90 hours from the start of the reaction and subjected to an HPLC measurement under the condition same as Example 4 to confirm the peaks of succinyl-form compound and free-form compound whereby the synthesis of L-tert-leucine from N-succinyl-DL-tert-leucine was confirmed.

Series [11] can be described thus: Synthesis of L-valine from N-succinyl-L-valine, TLC detection (Example 3). Format: biochemical. The settings on record: TLC ninhydrin, as Example 2. The method, then: as §1, §2, §3
Series [12] in a line: Effect of metal ion on L-succinylaminoacylase activity. It is filed as biochemical. The settings on record: metal ion Co2+ versus Zn2+.
Series [13] in a line: Optimum pH of the enzyme. It is filed as biochemical. The following applies: reaction at 60° C. for 30 minutes.
Series [14] in a line: Synthesis of L-tryptophan from N-succinyl-L-tryptophan, TLC detection (Example 3). It is filed as biochemical. The settings on record: TLC ninhydrin, as Example 2. The method, then:
as §1, §2, §3

The nature of series [15]: Synthesis of L-serine from N-succinyl-L-serine, TLC detection (Example 3). The settings on record: TLC ninhydrin, as Example 2. It is filed as biochemical. The method, then: as §1, §2, §3
The nature of series [16]: Synthesis of L-4-bromophenylalanine from N-succinyl-L-4-bromophenylalanine, TLC detection (Example 3). The settings on record: TLC ninhydrin, as Example 2. Format: biochemical. The procedure: as §1, §2, §3
Series [17] is described as follows: Activity to N-succinylamino acid compared with N-acetylamino acid. It is filed as biochemical.
A short description of series [18]: Synthesis of L-tert-leucine from N-succinyl-L-tert-leucine, TLC with ninhydrin detection (Examples 2, 3). Format: biochemical. The following applies: 57° C., 6 hours, CoCl2, HEPES pH 7.9. The procedure:
The above-mentioned 1 M HEPES (2.0 mL), 10 mM CoCl2 solution (0.1 mL) and 150 mM N-succinyl-L-tert-leucine (1.0 mL) were mixed with water (6.4 mL) to give a reaction reagent.
as §2, §3

A short description of series [19]: Synthesis of L-phenylalanine from N-succinyl-L-phenylalanine, TLC detection (Example 3). The following applies: TLC ninhydrin, as Example 2. It is filed as biochemical. The method, then: as §1, §2, §3

B1: N-succinylamino acid racemase: N-succinylamino acid racemase (gene SEQ ID No: 3) derived from Geobacillus stearothermophilus NCA 1503 strain, per JP-A No. 2008-61642 (protein, listed as Geobacillus stearothermophilus)
chain: MAINIEYVILRHLQMELKAPFTTSFGTFQRKELILVEVVDRDGVSGWGESVAFSAPWYSEETVKTNWHMLEDFLVPLALAEPIHHPEELSKRFSAIRQNNMAKAALEGAVWDLYAKRLGVPLSQALGGAKKDIEVGVSIGIQPTVADLLQVIERYVAQGYRRIKVKIKPSWDVDVIREVRRVFPDVPLMADANSAYTLVDADRLKALDEFGLLMIEQPLAADDLVDHARLQPLLQTPICLDESIRSYDDARKALDLGSCRIINIKIGRVGGLGEAKRIHDLCAERGAPVWCGGMLEAGVGRAHNIAITTLENFTLPGDTAASSHYWERDIITPEVEVHGGLIRVPDAPGIGYDVDRRQVERYTQFAKVFHRTATA
modifications: CDS (1)..(1128)
Consider B1, for which the “relative activity with Co2+ as compared with Mn2+” value in series [1] is “twice or more higher”.

B2: porcine kidney Acylase I: commercially available L-aminoacylase (Sigma, code No. A3010-100MG) (protein, UniProt P37111 2-407, looked up)
Aminoacylase-1: ASKGREGEHPSVTLFRQYLRIRTVQPEPDYGAAVAFLEERARQLGLGCQKVEVVPGHVVTVLTWPGTNPTLSSILLNSHTDVVPVFKEHWSHDPFEGFKDADGYIYGRGAQDMKCVSIQYLEAVRRLKVEGHHFPRTIHMTFVPDEEVGGHQGMELFVKRPEFQALRAGFALDEGLASPTDAFTVFYSERSPWWLRVTSTGKPGHGSRFIEDTAAEKLHKVINSILAFREKEKQRLQSNQLKPGAVTSVNLTMLEGGVAYNVVPATMSACFDFRVAPDVDLKAFEEQLQSWCQAAGEGVTFEFVQKWMETQVTSTDDSDPWWAAFSGVFKDMKLALELEICPASTDARYIRAAGVPALGFSPMNHTPVLLHDHDERLHEAVFLRGVDIYTQLLSALASVPALPSES
As to B2, in [2], the “ability to synthesize L-tert-leucine from N-acetyl-L-tert-leucine” value is reported as “unable to synthesize L-tert-leucine”.

B3: L-succinylaminoacylase: L-succinylaminoacylase of NCA 1503 strain of Geobacillus stearothermophilus; amino acid sequence SEQ ID No: 2, expressed in Escherichia coli JM 109 (pLSA1) (protein, listed as Geobacillus stearothermophilus)
chain: MKEIVEQMKAELWEVFDHLHRHPEISWEEWQTTEFLRRELEREGYRVRTFADCPGVVAEIGAGPFTVGVRSDMDALWQEVNGVWQPNHACGHDAHMTIVLGVAKLLRRIGYEPPGTLRFLFQPAEEKGTGALKLIEKGAVDGVSFLYGVHLRPIQEVKGGYAAPAIIHGAAQCIEGRIRGVAAHAARPHLGVNVIEVGSAIVQELGKIHIDPQVPASIKMTKFHAGEKDANTIPGYAEFALDLRAQTNEAMERLVEGLRHVINGVAAIYGAEIELVERTRIVAAHPDPDAVRLMEEAIIAALGTEKCVPPVVTSGGEDFHFYSFQKPELKTTMLGLGCDLRPGLHHPNMTFRRDDLLSGVEILARTVINTFALQGENERVSVAANH
Take B3: in [3], the “ability to synthesize L-aspartic acid from N-succinyl-L-aspartic acid” value was “able to synthesize the corresponding L-amino acid”. In series [4], the “yield (conversion rate into L-tert-leucine)” value was at least 90%. In addition, the “ability to synthesize L-cyclohexylglycine from N-succinyl-L-cyclohexylglycine” value in series [5] is reported as “able to synthesize the corresponding L-amino acid; also recorded: reacts”. Besides, the “ability to synthesize L-glutamic acid from N-succinyl-L-glutamic acid” value in [6] was “able to synthesize the corresponding L-amino acid”. Also, the “yield of L-tert-leucine” value in series [7] is at least 45%. Besides, in series [8], the “ability to synthesize L-asparagine from N-succinyl-L-asparagine” value is given as “able to synthesize the corresponding L-amino acid”. In series [9], the “Temperature stability: temperature at which inactivated” value was at least 75 °C and the “Temperature stability: temperature at which stable” value came out at 70 °C. Further, in [10], the “yield (conversion rate into L-tert-leucine)” value was “about 85%”. In addition, in [11], the “ability to synthesize L-valine from N-succinyl-L-valine” value is reported as “able to synthesize the corresponding L-amino acid”. Also, in series [12], the “activity increase with Co2+ as compared with Zn2+” value is recorded as “twice or more”. The “Optimum pH” value in series [13] was determined as 7. In [14], the “ability to synthesize L-tryptophan from N-succinyl-L-tryptophan” value is given as “able to synthesize the corresponding L-amino acid”. Moreover, the “ability to synthesize L-serine from N-succinyl-L-serine” value in series [15] is given as “able to synthesize the corresponding L-amino acid”. In addition, in series [16], the “ability to synthesize L-4-bromophenylalanine from N-succinyl-L-4-bromophenylalanine” value is “able to synthesize the corresponding L-amino acid; also recorded: reacts”. Further, the “activity to N-succinylamino acid relative to N-acetylamino acid” value in series [17] is recorded as “at least 100 fold”. Besides, the “ability to produce L-tert-leucine from N-succinyl-L-tert-leucine” value in [18] is recorded as “able to produce the L-tert-leucine; also recorded: able to synthesize the corresponding L-amino acid; also recorded: reacts”. In [19], the “ability to synthesize L-phenylalanine from N-succinyl-L-phenylalanine” value is “able to synthesize the corresponding L-amino acid”.
